Data published in article PMC7611158 (Molecular cancer therapeutics, 2019).

B1: hJ1-65Dv9 (antibody, V domains shown)
VH: QVQLVQSGAELKKPGSSVKVSCKASGYTFTDYEMHWVRQAPGQGLEWMGAIQPGGGGTAYNQKFKGRVTLTADKSTSTAYMELSSLRSEDTAVYYCTRRGYDDYPFAYWGQGTLVTVSS
VL: DIQMTQSPSSLSASVGDRVTITCRASGNIHNYLAWYQQKPGKAPKLLIYNAKTLADAVPSRFSGSGSGTDYTLTISSLQPEDFATYYCQHFWSAPWTFGQGTKLEIK
B2: J1-65D (antibody, V domains shown)
VH: QVQLQQPGAELVRPGASVKLSCKALGYTFTDYEMHWVKETPVHGLEWIGAIQPGGGGTAYNQKFKGKATLTADKSSSTAYMELSSLTSEDSAVYYCTRRGYDDYPFAYWGQGTLVTVSS
VL: DIQLTQSPASLSASVGETVTITCRASGNIHNYLAWYQQKQGKSPQLLVYNAKTLADDIPSRFSGSGSGTQYSLKINSLQPEDFGSYYCQHFWSAPWTFGGGTKLEIK
B3: J1-183D (antibody, V domains shown)
VH: QVQLQQPGTELVRPGVSVKISCKVSGYAFTDYAIHWIMQSHAKSLEWIGIINTYYGDSKYNQKFKDKATMTVDKSSNTAYMELARLTSEDSAIYYCARGYDGFAYWGQGTLVTVSS
VL: DIQLTQSPASLSASVGETVTFTCRTSENIYSYLTWYQQKQGKSPQLLVYNAKILAAGVPSRFSGYGSGTQFSLKINSLQPEDFGTYYCQHHYDIPWTFGGGTKLEIK

How the values were obtained:
[1] = target: JAG1 (target of the affinity printed for hJ1-65Dv9) (UniProt P78504)
[2] = target: human DLL4 (hDLL4), on transfected B16F10 cells (Homo sapiens, UniProt Q9NR61); assay: flow cytometry on cells
[3] = target: human JAGGED2 (hJAG2), on transfected HEK293 cells (Homo sapiens, UniProt Q9Y219); assay: flow cytometry on cells
[4] = target: murine Jagged1 (mJag1), on transfected B16F10 cells (mouse, UniProt Q9QXX0); assay: flow cytometry on cells
hJAG1 DSL-EGF1-3 protein = hJAG1 DSL-EGF1-3 protein (Homo sapiens, UniProt P78504); assay: SPR
hJAG1 DSL-EGF1-3 protein, sequence (P78504 185-335): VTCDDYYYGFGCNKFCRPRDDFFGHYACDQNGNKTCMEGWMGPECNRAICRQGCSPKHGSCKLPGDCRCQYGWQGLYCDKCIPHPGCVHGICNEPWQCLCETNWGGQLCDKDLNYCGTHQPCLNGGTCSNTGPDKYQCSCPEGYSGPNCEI

human DLL4 (hDLL4), on transfected B16F10 cells, sequence (Q9NR61 27-685, one chain of several): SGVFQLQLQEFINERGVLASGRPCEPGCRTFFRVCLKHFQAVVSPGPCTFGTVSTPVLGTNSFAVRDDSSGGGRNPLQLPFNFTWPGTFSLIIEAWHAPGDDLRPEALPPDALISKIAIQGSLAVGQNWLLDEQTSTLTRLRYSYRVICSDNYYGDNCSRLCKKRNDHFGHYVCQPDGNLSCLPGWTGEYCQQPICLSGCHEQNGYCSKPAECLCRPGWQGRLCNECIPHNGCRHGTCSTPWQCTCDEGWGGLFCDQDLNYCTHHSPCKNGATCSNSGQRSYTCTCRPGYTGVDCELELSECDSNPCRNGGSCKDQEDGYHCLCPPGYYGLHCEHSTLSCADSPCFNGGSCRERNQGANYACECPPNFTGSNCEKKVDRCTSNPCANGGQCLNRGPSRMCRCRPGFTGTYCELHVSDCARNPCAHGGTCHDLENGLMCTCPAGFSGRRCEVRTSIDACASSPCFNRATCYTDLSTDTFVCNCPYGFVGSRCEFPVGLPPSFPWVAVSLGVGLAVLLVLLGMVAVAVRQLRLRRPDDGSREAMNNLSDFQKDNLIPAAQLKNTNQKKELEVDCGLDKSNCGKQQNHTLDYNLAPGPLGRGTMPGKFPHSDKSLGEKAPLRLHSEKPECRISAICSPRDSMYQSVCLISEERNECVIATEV
human JAGGED2 (hJAG2), on transfected HEK293 cells, sequence (Q9Y219 24-1238): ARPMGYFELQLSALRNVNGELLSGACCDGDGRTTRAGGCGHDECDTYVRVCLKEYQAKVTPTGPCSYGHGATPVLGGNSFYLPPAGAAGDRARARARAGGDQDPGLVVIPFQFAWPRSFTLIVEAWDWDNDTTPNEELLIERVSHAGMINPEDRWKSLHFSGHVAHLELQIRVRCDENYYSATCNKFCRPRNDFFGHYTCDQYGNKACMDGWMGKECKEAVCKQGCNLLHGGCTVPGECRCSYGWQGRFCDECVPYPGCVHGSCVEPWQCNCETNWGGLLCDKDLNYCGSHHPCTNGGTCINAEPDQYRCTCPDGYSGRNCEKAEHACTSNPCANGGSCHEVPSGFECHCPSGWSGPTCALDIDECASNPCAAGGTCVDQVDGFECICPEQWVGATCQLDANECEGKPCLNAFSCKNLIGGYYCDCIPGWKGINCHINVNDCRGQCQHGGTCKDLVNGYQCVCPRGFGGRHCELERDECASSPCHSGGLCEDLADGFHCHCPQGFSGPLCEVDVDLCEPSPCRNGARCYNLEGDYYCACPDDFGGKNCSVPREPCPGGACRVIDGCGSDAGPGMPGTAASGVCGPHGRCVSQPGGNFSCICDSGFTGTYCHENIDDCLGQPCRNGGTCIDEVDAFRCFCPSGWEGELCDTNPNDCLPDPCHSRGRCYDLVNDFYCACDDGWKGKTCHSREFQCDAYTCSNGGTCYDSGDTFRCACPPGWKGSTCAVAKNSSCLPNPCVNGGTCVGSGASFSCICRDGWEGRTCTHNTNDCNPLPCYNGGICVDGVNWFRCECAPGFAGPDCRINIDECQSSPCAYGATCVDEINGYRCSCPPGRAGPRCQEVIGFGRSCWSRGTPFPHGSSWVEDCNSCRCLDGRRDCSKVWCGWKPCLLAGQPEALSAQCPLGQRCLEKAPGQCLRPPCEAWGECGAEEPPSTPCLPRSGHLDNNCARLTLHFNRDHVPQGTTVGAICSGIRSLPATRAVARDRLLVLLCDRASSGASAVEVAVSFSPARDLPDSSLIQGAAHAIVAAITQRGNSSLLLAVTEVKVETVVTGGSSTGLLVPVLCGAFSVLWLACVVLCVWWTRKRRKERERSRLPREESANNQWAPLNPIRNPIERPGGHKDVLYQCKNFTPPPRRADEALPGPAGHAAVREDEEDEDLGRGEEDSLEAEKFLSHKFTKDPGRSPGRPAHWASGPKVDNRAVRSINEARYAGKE
murine Jagged1 (mJag1), on transfected B16F10 cells, sequence (Q9QXX0 34-1218, one chain of several): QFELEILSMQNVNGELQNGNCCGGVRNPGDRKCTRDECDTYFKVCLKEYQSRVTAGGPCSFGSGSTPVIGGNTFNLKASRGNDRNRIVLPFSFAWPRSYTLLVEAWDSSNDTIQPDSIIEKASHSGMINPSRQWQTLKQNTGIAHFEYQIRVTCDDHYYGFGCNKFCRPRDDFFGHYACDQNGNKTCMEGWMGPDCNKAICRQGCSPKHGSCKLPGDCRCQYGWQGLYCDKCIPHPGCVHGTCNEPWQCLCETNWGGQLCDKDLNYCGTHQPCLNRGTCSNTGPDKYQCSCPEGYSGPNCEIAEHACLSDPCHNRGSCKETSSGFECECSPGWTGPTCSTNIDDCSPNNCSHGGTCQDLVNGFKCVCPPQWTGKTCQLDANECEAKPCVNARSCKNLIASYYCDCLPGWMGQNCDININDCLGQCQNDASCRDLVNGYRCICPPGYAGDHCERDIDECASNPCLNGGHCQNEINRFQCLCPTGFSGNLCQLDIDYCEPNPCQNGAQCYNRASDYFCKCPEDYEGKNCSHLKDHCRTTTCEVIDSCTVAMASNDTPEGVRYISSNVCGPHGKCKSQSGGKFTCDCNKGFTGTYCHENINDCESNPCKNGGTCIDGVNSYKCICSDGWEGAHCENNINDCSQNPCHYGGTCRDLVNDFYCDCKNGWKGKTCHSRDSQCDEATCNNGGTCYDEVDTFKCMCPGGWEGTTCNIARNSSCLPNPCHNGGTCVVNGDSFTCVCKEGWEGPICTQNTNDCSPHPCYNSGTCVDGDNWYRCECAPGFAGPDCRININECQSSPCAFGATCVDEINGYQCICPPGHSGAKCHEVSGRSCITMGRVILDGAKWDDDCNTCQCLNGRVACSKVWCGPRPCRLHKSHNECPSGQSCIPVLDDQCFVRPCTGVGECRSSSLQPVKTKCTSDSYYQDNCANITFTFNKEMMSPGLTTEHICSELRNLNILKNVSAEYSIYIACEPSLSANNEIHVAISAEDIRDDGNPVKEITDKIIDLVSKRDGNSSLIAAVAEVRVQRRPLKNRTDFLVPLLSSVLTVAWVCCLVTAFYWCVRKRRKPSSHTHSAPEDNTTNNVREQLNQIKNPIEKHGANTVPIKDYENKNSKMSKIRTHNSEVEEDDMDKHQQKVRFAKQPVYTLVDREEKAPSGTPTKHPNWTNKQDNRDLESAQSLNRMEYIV
JAG1 (target of the affinity printed for hJ1-65Dv9), sequence (P78504 34-1218): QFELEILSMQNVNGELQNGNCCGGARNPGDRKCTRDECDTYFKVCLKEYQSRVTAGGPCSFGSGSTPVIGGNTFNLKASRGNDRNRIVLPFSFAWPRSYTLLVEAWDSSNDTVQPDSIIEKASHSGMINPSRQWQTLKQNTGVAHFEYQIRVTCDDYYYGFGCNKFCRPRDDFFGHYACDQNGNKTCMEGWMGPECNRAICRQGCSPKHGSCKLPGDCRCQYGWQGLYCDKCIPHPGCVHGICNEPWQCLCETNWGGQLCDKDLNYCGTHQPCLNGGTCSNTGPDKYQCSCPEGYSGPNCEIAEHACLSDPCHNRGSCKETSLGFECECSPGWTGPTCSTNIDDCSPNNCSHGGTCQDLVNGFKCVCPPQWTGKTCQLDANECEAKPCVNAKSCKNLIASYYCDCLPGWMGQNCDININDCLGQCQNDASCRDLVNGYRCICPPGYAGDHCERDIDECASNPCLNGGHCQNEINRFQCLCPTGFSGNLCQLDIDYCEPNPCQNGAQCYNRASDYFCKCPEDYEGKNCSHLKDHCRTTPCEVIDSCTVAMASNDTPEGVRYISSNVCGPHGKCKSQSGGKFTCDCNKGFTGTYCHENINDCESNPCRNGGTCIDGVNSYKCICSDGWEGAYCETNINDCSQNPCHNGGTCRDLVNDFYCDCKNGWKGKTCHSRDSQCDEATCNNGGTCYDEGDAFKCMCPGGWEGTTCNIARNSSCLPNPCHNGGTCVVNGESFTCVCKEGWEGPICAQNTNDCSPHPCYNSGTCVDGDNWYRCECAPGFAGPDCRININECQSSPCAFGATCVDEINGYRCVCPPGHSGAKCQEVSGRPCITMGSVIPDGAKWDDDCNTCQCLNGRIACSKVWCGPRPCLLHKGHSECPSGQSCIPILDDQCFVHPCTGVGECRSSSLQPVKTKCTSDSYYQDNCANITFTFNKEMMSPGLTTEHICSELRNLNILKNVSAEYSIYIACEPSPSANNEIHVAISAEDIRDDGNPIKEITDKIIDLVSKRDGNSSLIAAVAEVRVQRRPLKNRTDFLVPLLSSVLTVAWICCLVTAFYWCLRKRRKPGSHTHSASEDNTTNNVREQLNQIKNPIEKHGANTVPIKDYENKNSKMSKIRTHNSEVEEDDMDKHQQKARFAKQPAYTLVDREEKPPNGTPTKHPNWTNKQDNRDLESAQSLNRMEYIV

Binder | Kd [1] | binding result [2] | binding result [3] | binding result [4] | Kd (hJAG1 DSL-EGF1-3 protein)
B1 | 0.0139 nM |  |  |  | 
B2 |  | no binding | no binding | no binding | 9.7 nM
B3 |  | no binding | no binding | no binding | 4.9 nM
